Tests used:
[1] = test system: T1, VEGF-121 (Homo sapiens), P15692-9; experiment: filter
T1 sequence: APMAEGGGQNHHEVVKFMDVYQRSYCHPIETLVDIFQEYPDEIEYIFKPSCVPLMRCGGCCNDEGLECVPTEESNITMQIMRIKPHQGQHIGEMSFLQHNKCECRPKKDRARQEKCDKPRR

[2] = test system: T2, VEGF-165 (Homo sapiens), P15692-4; experiment: filter; settings: NapdU at P
T2 sequence: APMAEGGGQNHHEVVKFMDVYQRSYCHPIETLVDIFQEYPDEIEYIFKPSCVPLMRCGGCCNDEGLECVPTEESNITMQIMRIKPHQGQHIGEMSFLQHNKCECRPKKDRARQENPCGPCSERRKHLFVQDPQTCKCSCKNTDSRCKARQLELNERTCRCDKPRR

[3] = as 4867-31_192, PS 3' of 17 as printed, 3' inverted dT

For “AGCCGTTCAAGTGCTTGTAGGATTTAAAT [4867-31_53]”, the Kd ([1]; NapdU at P) was 19 nM and the Kd [2] was 3.2 nM.

“CCGTTCAAGTGCTTGTAGGATTTAAATGG [4867-31_410]” showed a Kd ([1]; as 4867-31_192, PS 3' of 2, 3' inverted dT) of 0.016 nM.

For “CCGTTCAAGTGCTTGTAGGATTTAAATGG [4867-31_411]”, the Kd ([1]; as 4867-31_192 plus PS 3' of G3, 3'-idT, 29259-fold loss from PS at G3) was 320 nM.

Work on “CCGTTCAAGTGCTTGTAGGATTTAAATGG [4867-31_412]” yielded a Kd ([1]; as 4867-31_192, PS 3' of 4, 3' inverted dT) of 0.022 nM.

Work on “CCGTTCAAGTGCTTGTAGGATTTAAATGG [4867-31_413]” yielded a Kd ([1]; as 4867-31_192, PS 3' of 5, 3' inverted dT) of 0.015 nM.

“CCGTTCAAGTGCTTGTAGGATTTAAATGG [4867-31_414]” gave a Kd ([1]; as 4867-31_192, PS 3' of 7, 3' inverted dT) of 0.015 nM.

For “CCGTTCAAGTGCTTGTAGGATTTAAATGG [4867-31_415]”, the Kd ([1]; as 4867-31_192, PS 3' of 8, 3' inverted dT) was 0.011 nM.

In the case of “CCGTTCAAGTGCTTGTAGGATTTAAATGG [4867-31_416]”, the Kd ([1]; as 4867-31_192, PS 3' of 10, 3' inverted dT) is reported as 0.0093 nM.

In the case of “CCGTTCAAGTGCTTGTAGGATTTAAATGG [4867-31_417]”, the Kd ([1]; as 4867-31_192, PS 3' of 11, 3' inverted dT) is reported as 0.0094 nM.

In the case of “CCGTTCAAGTGCTTGTAGGATTTAAATGG [4867-31_420]”, the Kd ([1]; as 4867-31_192, PS 3' of 14, 3' inverted dT) is reported as 0.018 nM.

With “CCGTTCAAGTGCTTGTAGGATTTAAATGG [4867-31_421]” the Kd ([1]; as 4867-31_192, PS 3' of 16, 3' inverted dT) was 0.015 nM.

“CCGTTCAAGTGCTTGTAGGATTTAAATGG [4867-31_422]” was tested, and the Kd ([1]; as 4867-31_192, PS 3' of 19, 3' inverted dT) was 0.0095 nM.

With “CCGTTCAAGTGCTTGTAGGATTTAAATGG [4867-31_423]” the Kd ([1]; as 4867-31_192, PS 3' of 20, 3' inverted dT) was 0.018 nM.

Work on “CCGTTCAAGTGCTTGTAGGATTTAAATGG [4867-31_424]” yielded a Kd ([1]; as 4867-31_192, PS 3' of 21, 3' inverted dT) of 0.011 nM.

For “CCGTTCAAGTGCTTGTAGGATTTAAATGG [4867-31_425]”, the Kd ([1]; as 4867-31_192, PS 3' of 22 or 23 (printed P1-P2), 3' inverted dT) was 0.016 nM.

“CCGTTCAAGTGCTTGTAGGATTTAAATGG [4867-31_426]” was tested, and the Kd ([1]; as 4867-31_192, PS 3' of 24, 3' inverted dT) was 0.012 nM.

“CCGTTCAAGTGCTTGTAGGATTTAAATGG [4867-31_427]” gave a Kd ([1]; as 4867-31_192, PS 3' of 25, 3' inverted dT) of 0.0081 nM.

“CCGTTCAAGTGCTTGTAGGATTTAAATGG [4867-31_428]” showed a Kd ([1]; as 4867-31_192, PS 3' of 26, 3' inverted dT) of 0.0084 nM.

“CCGTTCAAGTGCTTGTAGGATTTAAATGG [4867-31_429]” showed a Kd ([1]; as 4867-31_192, PS 3' of 27, 3' inverted dT) of 0.012 nM.

“CCGTTCAAGTGCTTGTAGGATTTAAATGG [4867-31_438]” gave a Kd ([1]; as 4867-31_192, PS 3' of 6, 3' inverted dT) of 0.013 nM.

For “CCGTTCAAGTGCTTGTAGGATTTAAATGG [4867-31_439]”, the Kd ([1]; as 4867-31_192, PS 3' of 9, 3' inverted dT) was 0.024 nM.

For “CCGTTCAAGTGCTTGTAGGATTTAAATGG [4867-31_440]”, the Kd ([1]; as 4867-31_192, PS 3' of 12, 3' inverted dT) was 0.0099 nM.

Work on “CCGTTCAAGTGCTTGTAGGATTTAAATGG [4867-31_441]” yielded a Kd [1, 3] of 0.017 nM.

In the case of “CCGTTCAAGTGCTTGTAGGATTTAAATGG [4867-31_442]”, the Kd [1, 3] is reported as 0.015 nM.

“CCGTTCAAGTGCTTGTAGGATTTAAATGG [4867-31_443]” showed a Kd ([1]; as 4867-31_192, PS 3' of 18, 3' inverted dT) of 0.0085 nM.

In the case of “CCGTTCAAGTGCTTGTAGGATTTAAATGG [4867-31_444]”, the Kd ([1]; as 4867-31_192 plus PS 3' of G28, 3'-idT, PS walk) is reported as 0.0075 nM.

For “CCGTTCAAGTGCTTGTAGGATTTAAATGG [4867-31_445]”, the Kd ([1]; as 4867-31_192, PS 3' of 29, 3' inverted dT) was 0.01 nM.

“CCGTTCAAGTGCTTGTAGGATTTAAATGG [4867-31_475]” gave a Kd ([1]; as 4867-31_192, 2'-OMe 1, PS 25) of 0.026 nM.

“CCGTTCAAGTGCTTGTAGGATTTAAATGG [4867-31_476]” showed a Kd ([1]; as 4867-31_192, 2'-OMe 1, PS 26, printed 2.1-11) of 0.021 nM.

With “CCGTTCAAGTGCTTGTAGGATTTAAATGG [4867-31_477]” the Kd ([1]; as 4867-31_192, 2'-OMe 1, PS 25,26) was 0.024 nM.

Work on “CCGTTCAAGTGCTTGTAGGATTTAAATGG [4867-31_478]” yielded a Kd ([1]; as 4867-31_192, PS 25,26) of 0.019 nM.

In the case of “CCGTTCAAGTGCTTGTAGGATTTAAATGG [4867-31_479]”, the Kd ([1]; as 4867-31_192, 2'-OMe 1, PS 24) is reported as 0.026 nM.

“CCGTTCAAGTGCTTGTAGGATTTAAATGG [4867-31_480]” showed a Kd ([1]; as 4867-31_192, 2'-OMe 1, PS 24,25) of 0.028 nM.
